Results as given in publication PMC3683064 (PLoS ONE, 2013).

Assays:
[1] = biological target: T1, Lcc7 (Lentinula edodes, UniProt R9WS76); test: ABTS oxidation in presence of co-solvent; type: biochemical; details: 1 mM ABTS, 1x McIlvaine buffer pH 4, 30 °C; co-solvent effect, non-specific
T1 construct: full cDNA ORF (560 residues) in pPIC3.5K, secreted from Pichia pastoris GS115 and purified; signal peptide predicted
T1 sequence (R9WS76 30-560): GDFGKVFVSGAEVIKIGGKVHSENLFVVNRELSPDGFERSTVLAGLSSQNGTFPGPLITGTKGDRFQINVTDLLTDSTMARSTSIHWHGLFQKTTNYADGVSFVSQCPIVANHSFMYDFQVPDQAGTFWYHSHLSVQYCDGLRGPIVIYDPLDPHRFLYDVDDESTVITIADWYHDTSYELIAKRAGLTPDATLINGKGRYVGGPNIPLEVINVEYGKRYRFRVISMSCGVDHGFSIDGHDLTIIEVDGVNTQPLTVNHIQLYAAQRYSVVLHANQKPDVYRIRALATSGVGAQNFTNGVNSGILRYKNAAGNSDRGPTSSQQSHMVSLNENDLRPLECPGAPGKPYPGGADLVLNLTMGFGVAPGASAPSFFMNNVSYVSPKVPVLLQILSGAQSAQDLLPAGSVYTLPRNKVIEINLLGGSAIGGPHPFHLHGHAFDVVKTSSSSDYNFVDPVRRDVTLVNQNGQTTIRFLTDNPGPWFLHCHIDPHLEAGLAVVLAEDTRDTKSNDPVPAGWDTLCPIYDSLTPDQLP
Description: ABTS oxidation in presence of co-solvent on Lcc7

[2] = biological target: T2, Lcc5 (Lentinula edodes, UniProt R9WU11); test: ABTS oxidation in presence of co-solvent; type: biochemical; details: 1 mM ABTS, 1x McIlvaine buffer pH 4, 30 °C; co-solvent effect, non-specific
T2 construct: full cDNA ORF (515 residues) in pPIC3.5K, secreted from Pichia pastoris GS115 and purified; signal peptide predicted
T2 sequence (R9WU11 22-515): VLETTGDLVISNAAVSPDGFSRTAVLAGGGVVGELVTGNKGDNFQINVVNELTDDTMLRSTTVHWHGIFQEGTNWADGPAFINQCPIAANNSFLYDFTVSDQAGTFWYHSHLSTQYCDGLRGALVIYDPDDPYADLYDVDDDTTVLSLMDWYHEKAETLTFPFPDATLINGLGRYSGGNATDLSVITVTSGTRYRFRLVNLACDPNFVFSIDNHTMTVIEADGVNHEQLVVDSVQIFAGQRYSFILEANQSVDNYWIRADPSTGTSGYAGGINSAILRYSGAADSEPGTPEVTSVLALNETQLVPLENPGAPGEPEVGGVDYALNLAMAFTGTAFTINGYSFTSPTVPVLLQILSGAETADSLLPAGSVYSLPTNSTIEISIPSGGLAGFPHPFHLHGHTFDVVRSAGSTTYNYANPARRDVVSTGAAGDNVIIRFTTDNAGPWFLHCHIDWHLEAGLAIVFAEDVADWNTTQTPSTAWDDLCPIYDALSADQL
Description: ABTS oxidation in presence of co-solvent on Lcc5

[3] = biological target: T3, Lcc4A (Lentinula edodes, UniProt R9WT55); test: ABTS oxidation in presence of co-solvent; type: biochemical; details: 1 mM ABTS, 1x McIlvaine buffer pH 4, 30 °C; co-solvent effect, non-specific
T3 construct: full cDNA ORF (527 residues) in pPIC3.5K, secreted from Pichia pastoris GS115 and purified; signal peptide predicted
T3 sequence (R9WT55 18-527): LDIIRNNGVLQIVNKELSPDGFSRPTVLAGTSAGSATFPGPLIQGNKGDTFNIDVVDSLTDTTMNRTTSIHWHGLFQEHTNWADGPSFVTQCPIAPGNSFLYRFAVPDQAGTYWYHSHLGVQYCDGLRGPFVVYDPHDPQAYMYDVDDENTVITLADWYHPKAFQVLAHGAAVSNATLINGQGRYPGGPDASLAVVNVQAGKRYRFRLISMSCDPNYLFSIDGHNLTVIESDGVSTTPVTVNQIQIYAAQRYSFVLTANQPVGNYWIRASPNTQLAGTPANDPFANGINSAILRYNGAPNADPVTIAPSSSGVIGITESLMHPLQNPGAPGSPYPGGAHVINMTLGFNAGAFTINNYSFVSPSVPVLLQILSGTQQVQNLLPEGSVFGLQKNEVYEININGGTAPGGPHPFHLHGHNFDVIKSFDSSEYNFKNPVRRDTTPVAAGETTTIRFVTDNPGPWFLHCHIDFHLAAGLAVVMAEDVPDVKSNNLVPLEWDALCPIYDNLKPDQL
Description: ABTS oxidation in presence of co-solvent on Lcc4A

[4] = substrate: COc1ccccc1O; test: purified protein; details: 1x McIlvaine buffer pH 4, 30 °C
[5] = substrate: Oc1ccccc1O; test: spectrophotometric oxidation assay; type: biochemical, Lentinula edodes; details: 1x McIlvaine buffer pH 4, 30 °C
Description: (§1) spectrophotometric oxidation assay on Lcc4A

[6] = substrate: COc1cccc(OC)c1O; test: spectrophotometric oxidation assay; type: biochemical, Lentinula edodes; details: 1x McIlvaine buffer pH 4, 30 °C
Description: as §1

[7] = substrate: N[C@@H](Cc1ccc(O)c(O)c1)C(=O)O; test: spectrophotometric oxidation assay; type: biochemical, Lentinula edodes; details: 1x McIlvaine buffer pH 4, 30 °C
Description: as §1

[8] = substrate: CCn1c(=NN=c2sc3cc(S(=O)(=O)O)ccc3n2CC)sc2cc(S(=O)(=O)O)ccc21; test: purified protein; type: biochemical, Lentinula edodes; details: 1x McIlvaine buffer pH 4, 30 °C
[9] = substrate: Oc1ccccc1O; test: spectrophotometric oxidation assay; type: biochemical, Lentinula edodes; details: 1x McIlvaine buffer pH 4, 30 °C; remark: listed apart in the source
Description: (§2) spectrophotometric oxidation assay on Lcc5

[10] = substrate: COc1cccc(OC)c1O; test: spectrophotometric oxidation assay; type: biochemical, Lentinula edodes; details: 1x McIlvaine buffer pH 4, 30 °C; remark: listed apart in the source
Description: as §2

[11] = substrate: N[C@@H](Cc1ccc(O)c(O)c1)C(=O)O; test: spectrophotometric oxidation assay; type: biochemical, Lentinula edodes; details: 1x McIlvaine buffer pH 4, 30 °C; remark: listed apart in the source
Description: as §2

[12] = substrate: Oc1ccccc1O; test: spectrophotometric oxidation assay; type: biochemical, Lentinula edodes; details: 1x McIlvaine buffer pH 4, 30 °C; remark: listed apart in the source
Description: (§3) spectrophotometric oxidation assay on Lcc7

[13] = substrate: COc1cccc(OC)c1O; test: spectrophotometric oxidation assay; type: biochemical, Lentinula edodes; details: 1x McIlvaine buffer pH 4, 30 °C; remark: listed apart in the source
Description: as §3

With `CC#N` [ACN] the “IC50 ^d (v/v %) / ACN” value [1] was 17 v/v %, the “IC50 ^d (v/v %) / ACN” value [2] was 18 v/v % and the “IC50 ^d (v/v %) / ACN” value [3] was 30 v/v %.

`CO` [MeOH] was tested, and the “IC50 ^d (v/v %) / MeOH” value [3] was 28 v/v %.

In the case of `CCO` [EtOH], the “IC50 ^d (v/v %) / EtOH” value [1] is reported as 22 v/v % and the “IC50 ^d (v/v %) / ACN” value [2] is reported as 18 v/v %.

B1: Lcc4A (Lentinula edodes) (protein)
chain: T3 sequence (R9WT55 18-527)
notes: full cDNA ORF (527 residues) in pPIC3.5K, secreted from Pichia pastoris GS115 and purified; signal peptide predicted
Work on B1 yielded a Km [4] of 648 ± 105 µM, a Vmax [4] of 0.16 µmol/min/mg and a Vmax/Km [4] of 246 µL/min/mg. For the same molecule, the Km [5] was 255 ± 76 µM, the Vmax [5] was 0.91 µmol/min/mg and the Vmax/Km [5] was 3720 µL/min/mg. It also gave a Km [6] of 26.0 ± 2.4 µM, a Vmax [6] of 0.26 µmol/min/mg and a Vmax/Km [6] of 10000 µL/min/mg. The Km [7] was 1040 ± 150 µM, the Vmax [7] was 1.07 µmol/min/mg and the Vmax/Km [7] was 1030 µL/min/mg. It also gave a Km [8] of 11.2 ± 0.9 µM, a Vmax [8] of 0.61 µmol/min/mg and a Vmax/Km [8] of 54400 µL/min/mg.

B2: Lcc5 (Lentinula edodes) (protein)
chain: T2 sequence (R9WU11 22-515)
notes: full cDNA ORF (515 residues) in pPIC3.5K, secreted from Pichia pastoris GS115 and purified; signal peptide predicted
B2 gave a Km [4] of 1270 ± 90 µM, a Vmax [4] of 0.32 µmol/min/mg and a Vmax/Km [4] of 257 µL/min/mg. It also gave a Km [9] of 6.28 ± 0.68 mM, a Vmax [9] of 2.65 µmol/min/mg and a Vmax/Km [9] of 424 µL/min/mg. For the same molecule, the Km [10] was 113 ± 8 µM, the Vmax [10] was 0.6 µmol/min/mg and the Vmax/Km [10] was 5300 µL/min/mg. The Km [11] was 10.5 ± 0.7 mM, the Vmax [11] was 1.66 µmol/min/mg and the Vmax/Km [11] was 158 µL/min/mg. For the same molecule, the Km [8] was 325 ± 47 µM, the Vmax [8] was 2.26 µmol/min/mg and the Vmax/Km [8] was 6940 µL/min/mg.

B3: Lcc7 (Lentinula edodes) (protein)
chain: T1 sequence (R9WS76 30-560)
notes: full cDNA ORF (560 residues) in pPIC3.5K, secreted from Pichia pastoris GS115 and purified; signal peptide predicted
B3 showed a Km [4] of 8630 ± 2120 µM, a Vmax [4] of 0.18 µmol/min/mg and a Vmax/Km [4] of 21.4 µL/min/mg. For the same molecule, the Km [12] was 38.8 ± 5.3 mM, the Vmax [12] was 0.53 µmol/min/mg and the Vmax/Km [12] was 13.8 µL/min/mg. For the same molecule, the Km [13] was 12 ± 1 mM, the Vmax [13] was 1.73 µmol/min/mg and the Vmax/Km [13] was 144 µL/min/mg. The Km [8] was 36.3 ± 1.9 µM, the Vmax [8] was 19.7 µmol/min/mg and the Vmax/Km [8] was 543000 µL/min/mg.
